Test results as given in patent publication US8512991B2, “Beta 1,4-galactosyltransferases with altered donor and acceptor specificities, compositions and methods of use” (The United States of America, as represented by the …, priority 2007, dated 2013).
Positions count from the first letter of the chain named. In names and notes the source's numbering stands. Where two headings read alike, the source gives them in different places.

B1: b4Gal-T1-M340H-Y285L: double mutant human beta 1,4-galactosyltransferase I, Tyr285Leu and Met340His, transfers GalNAc or modified galactose with magnesium (protein, UniProt P15291 1-398, looked up, variant M340H Y285L)
chain: MRLREPLLSGSAAMPGASLQRACRLLVAVCALHLGVTLVYYLAGRDLSRLPQLVGVSTPLQGGSNSAAAIGQSSGELRTGGARPPPPLGASSQPRPGGDSSPVVDSGPGPASNLTSVPVPHTTALSLPACPEESPLLVGPMLIEFNMPVDLELVAKQNPNVKMGGRYAPRDCVSPHKVAIIIPFRNRQEHLKYWLYYLHPVLQRQQLDYGIYVINQAGDTIFNRAKLLNVGFQEALKDYDYTCFVFSDVDLIPMNDHNAYRCFSQPRHISVAMDKFGFSLPYVQLFGGVSALSKQQFLTINGFPNNYWGWGGEDDDIFNRLVFRGMSISRPNAVVGRCRHIRHSRDKKNEPNPQRFDRIAHTKETMLSDGLNSLTYQVLDVQRYPLYTQITVDIGTPS
B2: b4Gal-T1 Y285L: single mutant human beta4Gal-T1, Tyr285 to Leu, from which the double mutant was constructed (protein, UniProt P15291 1-398, looked up, variant Y285L)
chain: B1 chain with H340M
B3: b4Gal-T1-M340H: single mutant human beta4Gal-T1, Met340 to His, from which the double mutant was constructed (protein, UniProt P15291 1-398, looked up, variant M340H)
chain: B1 chain with L285Y
B4: b4Gal-T1Y289L: single mutant beta4Gal-T1, Tyr289 to Leu (bovine numbering), enlarged binding pocket with GalNAc-T activity (protein, UniProt P08037 1-402, looked up, variant Y289L)
chain: MKFREPLLGGSAAMPGASLQRACRLLVAVCALHLGVTLVYYLAGRDLRRLPQLVGVHPPLQGSSHGAAAIGQPSGELRLRGVAPPPPLQNSSKPRSRAPSNLDAYSHPGPGPGPGSNLTSAPVPSTTTRSLTACPEESPLLVGPMLIEFNIPVDLKLVEQQNPKVKLGGRYTPMDCISPHKVAIIIPFRNRQEHLKYWLYYLHPILQRQQLDYGIYVINQAGESMFNRAKLLNVGFKEALKDYDYNCFVFSDVDLIPMNDHNTYRCFSQPRHISVAMDKFGFSLPYVQLFGGVSALSKQQFLSINGFPNNYWGWGGEDDDIYNRLAFRGMSVSRPNAVIGKCRMIRHSRDKKNEPNPQRFDRIAHTKETMLSDGLNSLTYMVLEVQRYPLYTKITVDIGTPS

Legend:
[1] = Gal-T and GalNAc-T enzyme assay, specific activities of the catalytic domain (FIG. 2); format: biochemical; conditions: in the presence of magnesium; saturating substrates, 500 μM UDP-galactose or UDP-GalNAc, β-benzyl-GlcNAc 25 mM
Description: FIG. 2 is a graph showing specific activities of the catalytic domain of the human beta 4Gal-T1-M340H-Y285L. Reactions were performed under saturating conditions of all substrates. In these reactions the concentrations for the donors UDP-galactose or UDP-GalNAc was 500 μM and the acceptor β-benzyl-GlcNAc was at 25 mM.
The reactions were performed under saturating conditions of all substrates. […] This is in contrast to the wild type, which is not active (not able to transfer sugar) in the presence of magnesium.
Gal-T and GalNAc T enzyme assays are easily performed according to methods described in the art, for example US Published Application 20060084162. Protein concentrations are measured using the Bio-Rad protein assay kit, based on the method of Bradford and further verified on SDS gel. An in vitro assay procedure for the Gal-T1 has been reported previously (Ramakrishnan et al., J. Biol. Chem., 270, […] (2001)). The activities were measured using UDP-Gal or UDP-GalNAc as sugar nucleotide donors, and GlcNAc and Glc as the acceptor sugars. […] The column was washed successfully with 300, 400, and 500 µl of water, and the column flow-through was diluted with Biosafe scintillation fluid; radioactivity was measured with a Beckman counter. […]

[2] = Transfer of GalNAc or 2-keto-galactose to heptasaccharide tetrapeptide, MALDI mass spectra (FIG. 1); format: biochemical
Description: Major peaks are annotated with the carbohydrate structure shown in the symbols for monosaccharides, according to the nomenclature adopted by the consortium for functional glycomics, (on the world wide web at functionalglycomics.org/static/consortium/). GlcNAc (squares), mannose (spheres).
The experiments shown in FIG. 1 were performed with the double mutant, b4Gal-T1_M340H_Y285L, which was constructed from the single mutants, b4Gal-T1_M340H and b4Gal-T1_Y285L. The b4Gal-T1-M340H single mutant requires Mg2+ for the transfer reaction, while the b4Gal-T1 Y285L single mutant requires Mn2+ for the transfer reaction. In FIGS. 1, (A), (B) and (C) show the MALDI mass spectra of glycans after the transfer of GalNAc (shown in B) or 2-keto-galactose (shown in C) to the sugar acceptor, heptasaccharide tetrapeptide (A), Arg-[GlcNAcβ1,2-Manα-1,6-(GlcNAcβ1,2-Manα1,3)-Manβ1,4-GlcNAcβ1,4-GlcNAcβ]-Asn-Glu-Gly, by the double mutant enzyme, b4Gal-T1M340H_Y285L. In FIG. 1, major peaks are annotated with the carbohydrate structure shown in the symbols for monosaccharides, according to the nomenclature adopted by the consortium for functional glycomics (publicly available on the world wide web at functional glycomics.org/static/consortium/).

[3] = Ramakrishnan et al. 2002, 2004, cited from earlier work

Molecule	activity (able to transfer sugar) of the catalytic domain [1]	transfer of GalNAc or a modified sugar (2-keto-galactose) to the sugar acceptor ([2]; in the presence of Mg2+, acceptor heptasaccharide tetrapeptide)	metal ion required for the transfer reaction (GalNAc or a modified sugar) [2]	beta 4GalNAc-T activity compared with beta 4Gal-T activity ([3]; listed as beta 4Gal-T1-Y289L)	beta 4GalNAc-T activity compared with beta 4Gal-T activity ([3]; listed as beta4Gal-T1-Y289L)
B1	is active	transfer of GalNAc or a modified sugar			
B2			requires Mn2+		
B3			requires Mg2+		
B4			require the presence of Mn2+	exhibits both beta 4Gal-T and beta 4GalNAc-T activities	as efficient as its beta-1,4-galactosyltransferase (beta 4Gal-T) activity
